Results as given in patent US9012606B2, “In vivo half life increased fusion protein or peptide maintained by sustained in vivo release, and method for increasng in vivo half-life using same” (Alteogen, Inc., priority 2009, dated 2015).
Substitutions are numbered along the chain they refer to. Names may count otherwise.

Experiments:
[1] = Pharmacokinetics of hGH and hGH/alpha-1 antitrypsin fusions (serum ELISA); assay type: in vivo; details: Sprague-Dawley rats, subcutaneous, 200 μg/kg (Scitropin control)
Method: An anti-human growth hormone monoclonal antibody (Medix Biochemica, Finland) was diluted to a concentration of 1-5 μg/mL in phosphate buffered saline (PBS) and the dilution was aliquoted in an amount of 100 μL/well onto a 96-well plate (Nunc, Denmark) and incubated at room temperature for 15-18 hrs. After the antibody remaining suspended was removed, PBS containing 1% bovine serum albumin was plated in an amount of 250 μL/well and incubated at room temperature for 2 hours. The plates were washed three times with wash buffer (0.05% Tween 20, PBS) and the solution was aspirated. Samples were diluted in PBS containing 1% bovine serum albumin and added to the 96-well plates before incubation at room temperature for 2 hrs. The 96-well plates were washed five times with wash buffer and 100 μL of the human growth hormone monoclonal antibody-biotin conjugate prepared using sulfo-NHS-biotin (Pierce biotechnology, U.S.A.) was added to each well of the 96-well plates and then incubated at room temperature for 2 hrs. The plates were washed five times with wash buffer and incubated with streptabidin-HRP at room temperature for 30 min. Again, the plates were washed five times with wash buffer and reacted with 100 μL of a mixture of TMB (3,3′,5,5′-tetramethylbenzidine) and hydrogen peroxide per well for 30 min in a dark place. To each well was added 100 μL of 1 M sulfuric acid to terminate the reaction, followed by measuring absorbance at 450 nm on a VersaMax microplate reader (Molecular Device, U.S.A.). Values for each sample were calculated by regression analysis after a standard curve was plotted for a reference material.
Sprague-Dawley rats were used as experimental animals and three of them were administered with human growth hormone while five rats were assigned to each of the fusion-administered groups. The human growth hormone/alpha-1 antitrypsin fusion [T109wt: α1AT/hGH], the human growth hormone/alpha-1 antitrypsin monovariant fusion [T109: α1AT(P357N)/hGH], and the human growth hormone/alpha-1 antitrypsin divariant fusion [T109T: α1AT(P357N, S359T)/hGH], all prepared in Examples 1-3, were subcutaneously injected at a dose of 720 μg/kg into respective groups of Sprague-Dawley rats. The samples were diluted in PBS before injection. Blood samples were taken at 0, 1, 2, 4, 8, 12, 16, 24, 30 and 48 hrs after the injection, and centrifuged to obtain sera. For a control, Scitropin (SciGen, Singapore), a kind of human growth hormone, was subcutaneously injected at a dose of 200 μg/kg. PBS was used as a diluent. Blood samples were taken at 0, 0.33, 1, 2, 5, 8, 12, 18, 24, 30 and 48 hrs after the injection, and centrifuged to obtain sera. Each sample was analyzed in the same manner as the enzyme immunoassay of Test Example 1.

[2] = In vivo activity: body weight change in pituitary gland-removed rats; parameters: species or system Sprague-Dawley rats; details: subcutaneous 5 μg per rat every day (Eutropin), day 7
Method: Pituitary gland-removed Sprague-Dawley rats were used as experimental animals and divided into three groups of seven. To the hypophysectomyzed Sprague-Dawley rats, the human growth hormone/alpha-1 antitrypsin monovariant fusion [T109: α1AT(P357N)/hGH] prepared in Example 2 and human growth hormone (Eutropin, LG Life Sciences Ltd, Korea) were subcutaneously injected at doses of 18 μg and 5 μg per rat, respectively, every day. For a control, PBS was used. The rats were weighed every day after being injected.

[3] = Pharmacokinetics of IFN-α and IFN-α/alpha-1 antitrypsin monovariant fusion (serum ELISA); assay type: in vivo; details: Sprague-Dawley rats, subcutaneous, 60 μg/kg (Intermax alpha control)
Method: The enzyme immunoassay of human interferon alpha (IFN-α) and human interferon alpha/alpha-1 antitrypsin monovariant fusion was conducted with Human IFN-α Matched Antibody Pairs for ELISA (bender Medsystems, Austria). The IFN-α antibody (10 μg/ml) was allowed to adhere to 96-well plates and blocked as described in Test Example 1-1. A dilution of the sample was reacted with the antibody at room temperature for 2 hrs with shaking. An anti-IFN-α-HRP conjugate was plated in an amount of 50 μL/well and reacted with the antibody at room temperature for 2 hrs with shaking. Subsequent processes were conducted in the same manner as in Test Example 1-1.
Sprague-Dawley rats were used as experimental animals and five rats were assigned to each test group. The human interferon alpha/alpha-1 antitrypsin monovariant fusion [T502: α1AT(P357N)/IFN-α] prepared in Example 4 was subcutaneously injected at a dose of 200 μg/kg into Sprague-Dawley rats of one test group, 0, 0.33, 1, 2, 5, 8, 12, 18, 24, 30, 48, 72 and 96 hrs after which blood samples were taken, and centrifuged to obtain sera. […] Each sample was analyzed in the same manner as the enzyme immunoassay of Test Example 1.

[4] = Weweres et al. 1987; cited from earlier work
[5] = Pharmacokinetics of G-CSF and G-CSF/alpha-1 antitrypsin variant fusions (serum ELISA); assay type: in vivo; details: Sprague-Dawley rats, subcutaneous
Method: The same procedure as in Test Example 1 was repeated with the exception that an anti-granulocyte colony-stimulating factor (G-CSF) monoclonal antibody (RND systems, U.S.A.), instead of the anti-human growth hormone antibody, was diluted to a concentration of 1-5 μg/mL and granulocyte colony-stimulating factor polyclonal antibodies-biotin conjugate (RND systems, U.S.A.), instead of the human growth hormone monoclonal antibody-biotin conjugate, was used.
Sprague-Dawley rats were used as experimental animals and three of them were administered with granulocyte colony-stimulating factor while five rats were assigned to each of the fusion-administered groups. The granulocyte colony-stimulating factor/alpha-1 antitrypsin divariant fusion [T602S: α1AT(P357N, C232S)/G-CSF], and granulocyte colony-stimulating factor/alpha-1 antitrypsin trivariant fusion [T602ST: α1AT(P357N, C232S, S359T)/G-CSF], all prepared in Examples 5-6, were subcutaneously injected at a dose of 340 μg/kg into respective groups of Sprague-Dawley rats. Blood samples were taken at 0, 1, 2, 4, 8, 12, 16, 24, 30, and 48 hrs after the injection, and centrifuged to obtain sera. For a control, Filgrastim (Gracin, Jeil Pharmaceutical Co. Ltd. Korea), a commercially available granulocyte colony-stimulating factor, was subcutaneously injected at a dose of 100 μg/kg. Blood samples were taken at 0, 1, 2, 4, 8, 12, 18, 24, 30 and 48 hrs after the injection, and centrifuged to obtain sera. Each sample was analyzed in the same manner as the enzyme immunoassay of Test Example 1.

leucocytes = assay: In vivo activity: changes in leucocyte level; details: Sprague-Dawley rats
Method: Sprague-Dawley rats were used as experimental animals and divided into five groups of five each. To the Sprague-Dawley rats, the granulocyte colony-stimulating factor/alpha-1 antitrypsin divariant fusion [T602S: α1AT(P357N, C232S)/G-CSF] prepared in Example 5 was subcutaneously injected at doses of 340 μg/kg and 1,700 μg/kg. To another groups of rats, the granulocyte colony-stimulating factor/alpha-1 antitrypsin trivariant fusion [T602ST: α1AT(P357N, C232S, S359T)/G-CSF] prepared in Example 6 and the granulocyte colony-stimulating factor Filgrastim (Gracin, Jell Pharmaceutical Co. Ltd. Korea) were subcutaneously injected at doses of 1,700 μg/kg and 100 μg/kg, respectively. Blood samples were taken from the tail on 3 days before experiment and on 1, 2, 3, 4 and 5 days after the injection and leucocytes were counted using Hematology Analyzer (Pentra 120).

[6] = tested on: Murine myeloblastic NFS-60 cells; assay: In vitro activity in NFS-60 cells (MTS method); assay type: cell-based
Method: The rat lymphoma cell line (NB2 cell) was maintained in RPMI1640 supplemented with 10% HS (Horse serum), 10% FBS, 2-mercaptoethanol and antibiotics at 37° C. under a 5% CO2 condition. For 24 hrs before experiment, NB2 cells were incubated in RPMI 1640 supplemented with 10% HS. Thereafter, the NB2 cells were washed once with 1×DPBS (Dulbecco's Phosphate Buffered Saline), and plated at a density of 2×10^4 cells/100 μL/well in 5% HS-supplemented RPMI 1640 in 96-well plates (Corning, U.S.A.) with final volume of 100 μL. A series of concentrations of the samples were added in an amount of 20 μL to each well of the 96-well plates, followed by incubation at 37° C. for 48 hrs under a 5% CO2 condition. Subsequently, 20 μL of an MTS solution (Promega, U.S.A.) was added to each well of the 96-well plates and allowed to react at 37° C. for 3 hrs under a 5% CO2 condition. The reaction was terminated by adding 20 μL of 10% SDS (sodium dodecyl sulfate) to each well. Absorbance was measured at 490 nm using a VersaMax microplate reader (Molecular Device, U.S.A.).
Murine myeloblastic NFS-60 cells were incubated in RPMI 1640 supplemented with 10% FBS, mouse IL-3 and antibiotics at 37° C. under a 5% CO2 condition. The absorbance of the cells was measured at 490 nm in the same manner as in Test Example 4-1.

With “human growth hormone [reference compound]” the Tmax [1] was 1 h, the “serum half-life (t1/2)” value [1] was 0.8 h and the weight gain [2] was “about 10.2%”.

With “human interferon alpha [reference compound]” the Tmax [3] was 1.4 h and the “serum half-life (t1/2)” value [3] was 3.4 h.

In the case of alpha-1 antitrypsin, the in vivo half-life [4] is given as 120 to 140 h.

B1: granulocyte colony-stimulating factor/alpha-1 antitrypsin divariant fusion (protein)
chain: EDPQGDAAQKTDTSHHDQDHPTFNKITPNLAEFAFSLYRQLAHQSNSTNIFFSPVSIATAFAMLSLGTKADTHDEILEGLNFNLTEIPEAQIHEGFQELLRTLNQPDSQLQLTTGNGLFLSEGLKLVDKFLEDVKKLYHSEAFTVNFGDTEEAKKQINDYVEKGTQGKIVDLVKELDRDTVFALVNYIFFKGKWERPFEVKDTEEEDFHVDQVTTVKVPMMKRLGMFNIQHSKKLSSWVLLMKYLGNATAIFFLPDEGKLQHLENELTHDIITKFLENEDRRSASLHLPKLSITGTYDLKSVLGQLGITKVFSNGADLSGVTEEAPLKLSKAVHKAVLTIDEKGTEAAGAMFLEAINMSIPPEVKFNKPFVFLMIDQNTKSPLFMGKVVNPTQKGGGGSTPLGPASSLPQSFLLKCLEQVRKIQGDGAALQEKLCATYKLCHPEELVLLGHSLGIPWAPLSSCPSQALQLAGCLSQLHSGLFLYQGLLQALEGISPELGPTLDTLQLDVADFATTIWQQMEELGMAPALQPTQGAMPAFASAFQRRAGGVLVASHLQSFLEVSYRVLRHLAQP
modifications: T602S [alpha-1AT(P357N, C232S)/G-CSF]
notes: G-CSF fused to C-terminus of alpha-1 antitrypsin divariant 2 P357N, C232S
For B1, the Tmax ([5]; 340 μg/kg) was 13.6 h, the “serum half-life (t1/2)” value ([5]; 340 μg/kg) was 5.1 h and the “leucocyte count time course” value (leucocytes; subcutaneous, 340 μg/kg) was “peak level on Day 2 and then decrease from Day 3”. For the same molecule, the “leucocyte count time course” value (leucocytes; subcutaneous, 1,700 μg/kg) was “remained high until Day 3 and started to decrease on Day 4” and the EC50 [6] was 0.0781 nM.

B2: granulocyte colony-stimulating factor/alpha-1 antitrypsin trivariant fusion (protein)
chain: B1 chain with S359T
modifications: T602ST [alpha-1AT(P357N, C232S, S359T)/G-CSF]
notes: G-CSF fused to C-terminus of alpha-1 antitrypsin trivariant P357N, C232S, S359T
With B2 the Tmax ([5]; 340 μg/kg) was 16 h, the “serum half-life (t1/2)” value ([5]; 340 μg/kg) was 4.5 h and the “leucocyte count time course” value (leucocytes; subcutaneous, 1,700 μg/kg) was “remained high until Day 3 and started to decrease on Day 4”. For the same molecule, the EC50 [6] was 0.0976 nM.

B3: Filgrastim (protein, chains of the INN, looked up)
chain: MTPLGPASSLPQSFLLKCLEQVRKIQGDGAALQEKLCATYKLCHPEELVLLGHSLGIPWAPLSSCPSQALQLAGCLSQLHSGLFLYQGLLQALEGISPELGPTLDTLQLDVADFATTIWQQMEELGMAPALQPTQGAMPAFASAFQRRAGGVLVASHLQSFLEVSYRVLRHLAQP
notes: Filgrastim (Gracin, Jeil Pharmaceutical), a commercially available granulocyte colony-stimulating factor
For B3, the Tmax ([5]; 100 μg/kg (Filgrastim control)) was 1.8 h, the “serum half-life (t1/2)” value ([5]; 100 μg/kg (Filgrastim control)) was 1.8 h and the “leucocyte count time course” value (leucocytes; subcutaneous, 100 μg/kg) was “peak level at Day 1 and then decrease to the base line from Day 2”.
